Measured values: patent US20250313634A1 (WUXI BIOLOGICS SHANGHAI, published 2025)

What was measured:
Assay in all cases: capture ELISA on coated 1.14.4; relative to silent alanine substitutions
[1] = target: T1, hPD-L1_ECD.His point mutant K25A (human, UniProt Q9NZQ7 19-238)
T1 construct: extracellular domain
In short: (§1)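 Capture ELISA in which supernatant containing quantified PD-L1 alanine mutant was detected with HRP anti-His antibody. Absorbance was normalized to the average of control mutants. Epitope residues were called at binding fold change <0.55.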

[2] = target: T2, hPD-L1_ECD.His point mutant T127A (human, UniProt Q9NZQ7 19-238)
T2 construct: extracellular domain
T2 sequence (Q9NZQ7 19-238 T127A): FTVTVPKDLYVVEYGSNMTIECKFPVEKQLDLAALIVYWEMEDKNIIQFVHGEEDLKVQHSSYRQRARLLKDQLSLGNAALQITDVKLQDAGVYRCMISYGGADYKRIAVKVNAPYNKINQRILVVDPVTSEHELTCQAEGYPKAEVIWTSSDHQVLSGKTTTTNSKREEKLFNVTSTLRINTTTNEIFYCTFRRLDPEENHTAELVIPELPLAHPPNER
In short: as §1

[3] = target: T3, hPD-L1_ECD.His point mutant E217A (human, UniProt Q9NZQ7 19-238)
T3 construct: extracellular domain
T3 sequence (Q9NZQ7 19-238 E217A): as the sequence (Q9NZQ7 19-238 T127A) above, with A109T, E199A counted along it
In short: as §1

[4] = target: T4, hPD-L1_ECD.His point mutant F19A (human, UniProt Q9NZQ7 19-238)
T4 construct: extracellular domain
T4 sequence (Q9NZQ7 19-238 F19A): as the sequence (Q9NZQ7 19-238 T127A) above, with F1A, A109T counted along it
In short: as §1

[5] = target: T5, hPD-L1_ECD.His point mutant E60A (human, UniProt Q9NZQ7 19-238)
T5 construct: extracellular domain
T5 sequence (Q9NZQ7 19-238 E60A): as the sequence (Q9NZQ7 19-238 T127A) above, with E42A, A109T counted along it
In short: as §1

[6] = target: T6, hPD-L1_ECD.His point mutant M115A (human, UniProt Q9NZQ7 19-238)
T6 construct: extracellular domain
T6 sequence (Q9NZQ7 19-238 M115A): as the sequence (Q9NZQ7 19-238 T127A) above, with M97A, A109T counted along it
In short: as §1

[7] = target: T7, hPD-L1_ECD.His point mutant I64A (human, UniProt Q9NZQ7 19-238)
T7 construct: extracellular domain
T7 sequence (Q9NZQ7 19-238 I64A): as the sequence (Q9NZQ7 19-238 T127A) above, with I46A, A109T counted along it
In short: as §1

[8] = target: T8, hPD-L1_ECD.His point mutant Y32A (human, UniProt Q9NZQ7 19-238)
T8 construct: extracellular domain
T8 sequence (Q9NZQ7 19-238 Y32A): as the sequence (Q9NZQ7 19-238 T127A) above, with Y14A, A109T counted along it
In short: as §1

[9] = target: T9, hPD-L1_ECD.His point mutant K185A (human, UniProt Q9NZQ7 19-238)
T9 construct: extracellular domain
T9 sequence (Q9NZQ7 19-238 K185A): as the sequence (Q9NZQ7 19-238 T127A) above, with A109T, K167A counted along it
In short: as §1

[10] = target: T10, hPD-L1_ECD.His point mutant N96A (human, UniProt Q9NZQ7 19-238)
T10 construct: extracellular domain
T10 sequence (Q9NZQ7 19-238 N96A): as the sequence (Q9NZQ7 19-238 T127A) above, with N78A, A109T counted along it
In short: as §1

[11] = target: T11, hPD-L1_ECD.His point mutant M59A (human, UniProt Q9NZQ7 19-238)
T11 construct: extracellular domain
T11 sequence (Q9NZQ7 19-238 M59A): as the sequence (Q9NZQ7 19-238 T127A) above, with M41A, A109T counted along it
In short: as §1

[12] = target: T12, hPD-L1_ECD.His point mutant V174A (human, UniProt Q9NZQ7 19-238)
T12 construct: extracellular domain
T12 sequence (Q9NZQ7 19-238 V174A): as the sequence (Q9NZQ7 19-238 T127A) above, with A109T, V156A counted along it
In short: as §1

[13] = target: T13, hPD-L1_ECD.His point mutant R86A (human, UniProt Q9NZQ7 19-238)
T13 construct: extracellular domain
T13 sequence (Q9NZQ7 19-238 R86A): as the sequence (Q9NZQ7 19-238 T127A) above, with R68A, A109T counted along it
In short: as §1

[14] = target: T14, hPD-L1_ECD.His point mutant T102A (human, UniProt Q9NZQ7 19-238)
T14 construct: extracellular domain
T14 sequence (Q9NZQ7 19-238 T102A): as the sequence (Q9NZQ7 19-238 T127A) above, with T84A, A109T counted along it
In short: as §1

[15] = target: T15, hPD-L1_ECD.His point mutant T20A (human, UniProt Q9NZQ7 19-238)
T15 construct: extracellular domain
T15 sequence (Q9NZQ7 19-238 T20A): as the sequence (Q9NZQ7 19-238 T127A) above, with T2A, A109T counted along it
In short: as §1

[16] = target: T16, hPD-L1_ECD.His point mutant L74A (human, UniProt Q9NZQ7 19-238)
T16 construct: extracellular domain
T16 sequence (Q9NZQ7 19-238 L74A): as the sequence (Q9NZQ7 19-238 T127A) above, with L56A, A109T counted along it
In short: as §1

[17] = target: T17, hPD-L1_ECD.His point mutant N35A (human, UniProt Q9NZQ7 19-238)
T17 construct: extracellular domain
T17 sequence (Q9NZQ7 19-238 N35A): as the sequence (Q9NZQ7 19-238 T127A) above, with N17A, A109T counted along it
In short: as §1

[18] = target: T18, hPD-L1_ECD.His point mutant E188A (human, UniProt Q9NZQ7 19-238)
T18 construct: extracellular domain
T18 sequence (Q9NZQ7 19-238 E188A): as the sequence (Q9NZQ7 19-238 T127A) above, with A109T, E170A counted along it
In short: as §1

[19] = target: T19, hPD-L1_ECD.His point mutant I206A (human, UniProt Q9NZQ7 19-238)
T19 construct: extracellular domain
T19 sequence (Q9NZQ7 19-238 I206A): as the sequence (Q9NZQ7 19-238 T127A) above, with A109T, I188A counted along it
In short: as §1

[20] = target: T20, hPD-L1_ECD.His point mutant R82A (human, UniProt Q9NZQ7 19-238)
T20 construct: extracellular domain
T20 sequence (Q9NZQ7 19-238 R82A): as the sequence (Q9NZQ7 19-238 T127A) above, with R64A, A109T counted along it
In short: as §1

[21] = target: T21, hPD-L1_ECD.His point mutant E71A (human, UniProt Q9NZQ7 19-238)
T21 construct: extracellular domain
T21 sequence (Q9NZQ7 19-238 E71A): as the sequence (Q9NZQ7 19-238 T127A) above, with E53A, A109T counted along it
In short: as §1

[22] = target: T22, hPD-L1_ECD.His point mutant A232G (human, UniProt Q9NZQ7 19-238)
T22 construct: extracellular domain
T22 sequence (Q9NZQ7 19-238 A232G): as the sequence (Q9NZQ7 19-238 T127A) above, with A109T, A214G counted along it
In short: as §1

[23] = target: T23, hPD-L1_ECD.His point mutant K41A (human, UniProt Q9NZQ7 19-238)
T23 construct: extracellular domain
T23 sequence (Q9NZQ7 19-238 K41A): as the sequence (Q9NZQ7 19-238 T127A) above, with K23A, A109T counted along it
In short: as §1

[24] = target: T24, hPD-L1_ECD.His point mutant V29A (human, UniProt Q9NZQ7 19-238)
T24 construct: extracellular domain
T24 sequence (Q9NZQ7 19-238 V29A): as the sequence (Q9NZQ7 19-238 T127A) above, with V11A, A109T counted along it
In short: as §1

[25] = target: T25, hPD-L1_ECD.His point mutant P133A (human, UniProt Q9NZQ7 19-238)
T25 construct: extracellular domain
T25 sequence (Q9NZQ7 19-238 P133A): as the sequence (Q9NZQ7 19-238 T127A) above, with A109T, P115A counted along it
In short: as §1

[26] = target: T26, hPD-L1_ECD.His point mutant G95A (human, UniProt Q9NZQ7 19-238)
T26 construct: extracellular domain
T26 sequence (Q9NZQ7 19-238 G95A): as the sequence (Q9NZQ7 19-238 T127A) above, with G77A, A109T counted along it
In short: as §1

T1 sequence (Q9NZQ7 19-238 K25A): as the sequence (Q9NZQ7 19-238 T127A) above, with K7A, A109T counted along it

B1: 1.14.4 (antibody, V domains shown)
VH: EVQLLESGGGLVQPGGSLRLSCAASGFTFSSYAMSWVRQAPGKGLEWVSGISGSGGFTYYADSVKGRFTISRDNSKNTLYLQMNSLRAEDTAVYYCAKPPRGYNYGPFDYWGQGTLVTVSS
VL: SYVLTQPPSVSVAPGQTARITCGGNNIGSKSVHWYQQKPGQAPVLVVYDDSDRPSGIPERFSGSNSGNTATLTISRVEAGDEADYYCQVWDSSSDHVVFGGGTKLTVL
notes: Fully human monoclonal antibody with a human constant region of IgG4 isotype
B1 was tested, and the fold change [1] was 0.857 fold, the fold change [2] was 0.735 fold and the fold change [3] was 0.823 fold. For the same binder, the fold change [4] was 0.78 fold, the fold change [5] was 0.547 fold and the fold change [6] was 1.02 fold. The fold change [7] was 0.716 fold, the fold change [8] was 0.935 fold and the fold change [9] was 0.853 fold. It also gave a fold change [10] of 0.924 fold, a fold change [11] of 1.01 fold and a fold change [12] of 0.983 fold. For the same binder, the fold change [13] was 1 fold, the fold change [14] was 0.887 fold and the fold change [15] was 0.974 fold. For the same binder, the fold change [16] was 1.02 fold, the fold change [17] was 0.788 fold and the fold change [18] was 0.833 fold. The fold change [19] was 0.876 fold, the fold change [20] was 0.934 fold and the fold change [21] was 0.772 fold. It also gave a fold change [22] of 0.756 fold, a fold change [23] of 1.07 fold and a fold change [24] of 0.882 fold. The fold change [25] was 0.664 fold and the fold change [26] was 0.668 fold.
